Data from patent publication US20060235215A1 (published 2006).

T1: O. sativa Cellulose Synthase Catalytic Subunit, RSW1-Like, bait fragment aa 316-583 (Oryza sativa, UniProt A2Y0X2 316-583)
T1 construct: bait; also called OsCS; PN19707
T1 sequence: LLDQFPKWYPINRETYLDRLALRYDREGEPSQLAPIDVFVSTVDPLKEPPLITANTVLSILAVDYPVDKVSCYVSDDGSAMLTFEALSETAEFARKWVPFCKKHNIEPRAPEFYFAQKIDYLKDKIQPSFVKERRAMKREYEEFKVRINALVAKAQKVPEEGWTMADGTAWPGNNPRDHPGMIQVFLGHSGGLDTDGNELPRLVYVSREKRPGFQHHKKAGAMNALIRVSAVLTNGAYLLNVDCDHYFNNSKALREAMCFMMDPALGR

T2: Elicitor responsive protein, bait fragment aa 50-145 (Oryza sativa, UniProt Q0JBH9 50-144)
T2 construct: bait; also called OsERP; PN20696
T2 sequence: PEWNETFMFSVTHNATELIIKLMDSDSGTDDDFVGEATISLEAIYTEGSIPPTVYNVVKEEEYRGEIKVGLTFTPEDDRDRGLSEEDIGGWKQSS

B1: O. sativa Cellulose Synthase Catalytic Subunit, RSW1-Like, prey clone aa 316-582 (enzyme)
chain: LLDQFPKWYPINRETYLDRLALRYDREGEPSQLAPIDVFVSTVDPLKEPPLITANTVLSILAVDYPVDKVSCYVSDDGSAMLTFEALSETAEFARKWVPFCKKHNIEPRAPEFYFAQKIDYLKDKIQPSFVKERRAMKREYEEFKVRINALVAKAQKVPEEGWTMADGTAWPGNNPRDHPGMIQVFLGHSGGLDTDGNELPRLVYVSREKRPGFQHHKKAGAMNALIRVSAVLTNGAYLLNVDCDHYFNNSKALREAMCFMMDPALG
notes: prey; AD fusion; input trait library; also called OsCS; PN19707
B2: O. sativa salT Gene Product, prey clone aa 6-145 (other)
chain: IGPWGGNGGSAQDISVPPKKLLGVTIYSSDAIRSIAFNYIGVDGQEYAIGPWGGGESTSTEIKLGSSEQIKEISGTHGPVYDLADIVTYLKIVTSANNTYEAGVPNGKEFSIPLQDSGHVVGFFGRSGTLIDAIGIYVHP
notes: prey; AD fusion; output trait library; also called OsAAB53810; PN29086
B3: O. sativa Aquaporin, prey clone aa 123-290 (other)
chain: RKVSLVRAILYIVAQCLGAICGVGLVNAFPNAYFNRYGGGANTLAAGYSKGTGLAAEIIGTFVLVYTVFSATDPKRNARDSHVPVLAPLPIGFAVFMVHLATIPITGTGINPARSIGAAVIFNNEKAWHNHWIFWVGPFVGAAIAAFYHQYILRAGAIKALGSFRSNA
notes: prey; AD fusion; output trait library; also called OsPIP2A; OsPIP2a
B4: Novel Protein PN29076, Fragment, prey clone aa 1-187 (other)
chain: ERDISMVNSYPPSAFDCKGWNSASIFIYESDEEIQCLLDWLRDYDPREKELKDSILQWQRHFCHQSSSPLVDPPISGPKGEQLMELPNTKAAVILEQKYGLQLDQDTSDLPKKRGKKIKLSSEDRTYRCDCLEPVWPSRYHCLTCHETYLISTEFEGHNDGKCSKIHQSPDESRENDEPKVKVTKSD
notes: prey; AD fusion; output trait library; also called OsPN29076
B5: Novel Protein PN29077, Fragment, Similar to A. thaliana DNA-Damage Inducible Protein DDI1-Like, prey clone aa 1-242 (other)
chain: VEAQKKIEAAIRQKGIDENWEAALEHNPEAFARVVMLYVDMEVNGVPLKAFVDSGAQSTIISKSCAERCGLLRLLDQRYRGVAIGVGQSEILGRIHVAPIKIGHVFYPCSFTVLDAPNMEFLFGLDMLRKHQCIIDLKDNVLRVGGGEVSVPFLQEKDIPSHIRDEEKLSKLASLSQGAAGESSTAREKTPDAPPRAPTTGAPAVNPPQPQGGGDFEAKVTKLVELGFDRASVIQALKLFNG
notes: prey; AD fusion; output trait library; four clones; also called OsPN29077
B6: Novel Protein PN29084, Fragment, Similar to Soybean (Glycine max) Calcium-Dependent Protein Kinase, prey clone aa 1-253 (other)
chain: ESGIFRQILRGKLDLESDPWPSISDSAKDLVRNMLIRDPTKRFTAHEVLCHPWIVDDAVAPDKPIDSAVLSRLKHFSAMNKLKKMALRVIAESLSEEEIGGLKELFKMIDTDNSGTITYDELKNGLKRVGSDLMEPEIQALMDAADIDNSGTIDYGEFLAATLHMNKLEREENLVSAFTFFDKDGSGFITIDELSQACEQFGLSDVHLEDMIKDVDQNNDGQIDYSEFAAMMRKGNAGGANAGGVTSTGGTGR
notes: prey; AD fusion; output trait library; three clones; also called OsPN29084
B7: O. sativa DNAJ Homologue, prey clone aa 1-92 (other)
chain: CKVSYIDAILGTTVKVPTVDGMVDLKIPSGTQPGTTLVMSKKGVPLLGKSNARGDQLVRVQVEIPKRLSSDERKLIEELANLNKAQTANSRR
notes: prey; AD fusion; output trait library; also called OsPN29113
B8: Novel Protein PN29115, Fragment, Similar to A. thaliana 6,7-Dimethyl-8-Ribityllumazine Synthase Precursor, prey clone aa 1-188 (other)
chain: VSFPYSPRPAALAAGARASRVSPVVVAAGGGHQRLMGSLTNTQGLRFGVVVARFNEIVTNLLLQGALETFERYSVKKENITVLSVPGSFEIPVAAQKLGKSGKFDANFVHWRCAFRGDTTHYGAVANSAASGVLSAGLSAEIPCIFGVLTCDDMDQALNRAGGKAGNKGAEAALTAIEMASLFQHHLA
notes: prey; AD fusion; output trait library; also called OsPN29115
B9: Novel Protein PN29116, Fragment, prey clone aa 1-169 (other)
chain: GRKPVAAQHYNKGDKDGTSTGSRCTSVAWVPEREGIFVVSHSDGNLYVYDKCKDGNTECTFPAIKDPAQLMISHAKSSKSNPIARWHVCQGSINAISFSPDGAYLATVGRDGYLRVFDFSKEQLIFGGKSYYGALLCCTWSSDGKYLLTGGEDDLVQVWSMDDRKIVAW
notes: prey; AD fusion; output trait library; also called OsPN29116
B10: Novel Protein PN29117, prey clone aa 1-151 (printed -7-151) (other)
chain: MLVQRRDGDTGPAVRLRVSHGASFRDVAVPAHSTFGELKGVLTQATGVEPERQRLFFRGKEKSDNEFLHTAGVKDGAKLLLLEKPAPANVEQRAEPVIMDESMMKACEAVGRVRAEVDRLSAKVCDLEKSVFAGRKIEDKDFVVLTELLMM
notes: prey; AD fusion; output trait library; clone also holds a small portion (-7 to 0) of the 5' untranslated region; also called OsPN29117; BAG-like protein
B11: Novel Protein PN29119, Fragment, prey clone aa 1-155 (printed -53 to 155) (other)
chain: MEFEADGARWPEPRGDAAGAPPLERGDAPSPRFDSSRALRLLRELGSNVTEDLVVLMPNLLSFLKHDDPVVVNQSIASGTNLFAAVLEEMTLQINKCGRVDAWLEEMWAWTKQFKDAVHNLIHESVPVATKLFAVKFIETWILCFAPQSKSDRMQ
notes: prey; AD fusion; output trait library; clone also holds a portion of the 5' untranslated region; also called OsPN29119
B12: Novel protein PN30844, prey clone aa 1-64 (other)
chain: VAVRKKETRDGAMQTMPSRVQQGAADFEETLFVRCHLYCSGGAGTGKPLRFEPRPFLLSAVAVE
notes: prey; AD fusion; input trait library
B13: NAD(P) binding domain protein PN30868, prey clone aa 167-336 (other)
chain: YNELAQLRAGKSSKSKLLIAKFKSPKSLNGWEVDQGSYFPNTFASRFDEGIDASFDFSEAGQAVFSGFVFTRGGYVEISKRLSLPLGSTLDRYDGLLFSVGGNGRSYVVILETGPLADTSQSKKYFARMTTKVGFCRVRVPFSAFRPVNPQDPPLDPFLVHTLTIRFEPK
notes: as for B12
B14: Novel protein PN29983, prey clone aa 1-131 (other)
chain: GVETVVTDTAGNKVVVTGAADAAELKERIEARTKKAVQIVSAGAGPPPKKDKEEKKDKDKKGGGDDKKAEKEKGGGGGDKKAEKEKGGGDKPKEEKKAKEPKEETVTLKIRLHCEGCIDRIKRRICKIKGG
notes: as for B12
B15: Pectinesterase-like PN30845, prey clone aa 1-64 (other)
chain: GDQGRTYLFRVSNVGVKTSVNVRIQGHSLRLVEVEGTHPVQNVYDSLDVHVGQSVAFLVTLDKA
notes: as for B12
B16: Isp-4 like PN30870, prey clone aa 1-446 (other)
chain: GEEDEHPHEGRAGVERRRQHVVVLLPPPLAVLEHEVVEDGARDEPARDVGRRRRRHPGEPVGDDGDVDERDPLLLRERPAEQPHRHGQHGAGEEQPHQVAVQAVAAEQPGGADEPPDHRRVERDPVLGARPRAVRVQRLHVADVVDAAQHPPRHRQVHHAGDHRAHQLRRVHAPRRDLHVVPQLEVREERQRVHRADPPVDLEQQVRDRLPRQRVPDHELRDDVVPRLLVGGGLDDADGEGDDEGEGEGEEHPPPRQLHLLPVHERHDQRHGDAADEQHEEPPLRHLLVPPHQLRVHVHLRRRGAHRRPALPPDVPAVEQRHVHDRRREPQEPGPDGDGEQRAQVQLPVALVRRHVEVELPREHLGGVVLLPGRREQLVGEDWELPRVERVELPVAERHDEVDEHDEARGGVGDGRPRRHQRAPVVRRDAGPVQCEGADAEAVVAG
notes: as for B12
B17: Ubiquitin specific protease-like PN30843, prey clone aa 164-221 (other)
chain: RALQNFTAEELLDGGEKQYQCQRCRKKVVAKKKFTIDKAPYVLTIHLKRFSPFNPREK
notes: as for B12
B18: Novel protein PN30857, prey clone aa 1-148 (other)
chain: QDTRPLQAQRRRHGGGPQDRQREPSQGDFLRRQREEHPGGEEDRAPHGAGGHAAAGEGRGPRAGEHPQHQGGAAGAVGGGREGGGRAHLLRPRRHRDIGDRVGHTYCLSRLRRIAQNEQPSIHPCPSLAGQVIIRWEFRIGRDNNTFQ
notes: as for B12

Target: T1, O. sativa Cellulose Synthase Catalytic …
Assay: yeast two-hybrid
Description: Yeast carrying the target gene construct was combined with yeast carrying the activation domain library. The two yeast strains mated to form diploid yeast and were plated on media that selected for expression of one or more Ga14p-responsive reporter genes. Thus, both hybrid proteins (i.e., the target “bait” protein and the activation domain “prey” protein) were expressed in a yeast reporter strain where an interaction between the test proteins results in transcription of the reporter genes […]. Colonies that arose after incubation were selected for further characterization. The activation domain plasmid was isolated from each colony obtained in the two-hybrid search. The sequence of the insert in this construct was obtained by sequence analysis (e.g., Sanger's dideoxy nucleotide chain termination method; see Ausubel et al., 1988, including updates up to 2002). Thus, the identity of positives obtained from these searches was determined by sequence analysis against proprietary and public (e.g., GENBANK®) nucleic acid and protein databases.
A second bait, namely O. sativa Cellulose Synthase Catalytic Subunit, RSW1-Like (OSCS; PN19707; GENBANK® Accession No. AF030052), was also used.

Row | Binder | binding result
1 | B1 | binds
2 | B2 | binds
3 | B3 | binds
4 | B4 | binds
5 | B5 | binds
6 | B6 | binds
7 | B7 | binds
8 | B8 | binds
9 | B9 | binds
10 | B10 | binds
11 | B11 | binds

Target: T2, Elicitor responsive protein, bait …
Assay: yeast two-hybrid

Row | Binder | binding result
12 | APSSSSGTTSRPTASRTQQTKGRLTVTISLKAYSPGRT (other, prey; AD fusion; input trait library) [Novel Protein PN29984, prey clone aa 1-38] | binds
13 | SSGTTSRPTASRTQQTKGRLTVTISLKAYSPGRTRSG (other, prey; AD fusion; input trait library) [Novel Protein PN29984, prey clone aa 5-41] | binds
14 | B12 | binds
15 | B13 | binds
16 | B14 | binds
17 | B15 | binds
18 | B16 | binds
19 | B17 | binds
20 | B18 | binds
